# Test system: MS2 coat protein
# Assay: apparent KD of MS2 coat protein; higher = weaker reporter binding
# Conditions: Eterna round: R107
# Procedure: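 RNA-MaP round R107: designed RNA switches with theophylline, tryptophan, arginine or FMN aptamers are transcribed on-chip within common flanks. They are titrated with SNAP-549-labelled MS2 coat protein in RNA-MaP buffer (100 mM Tris pH 7.5, 80 mM KCl, 4 mM MgCl2), without ligand or with the indicated ligand. Median apparent KD per design.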
# [1] = input ligand: theophylline 20 uM
# [2] = input ligand: tryptophan 2.4 mM
# [3] = input ligand: theophylline 2 mM
Sequence,apparent KD of MS2 coat protein (input ligand: arginine 13.2 mM) [nM],apparent KD of MS2 coat protein [1] [nM],apparent KD of MS2 coat protein [2] [nM],apparent KD of MS2 coat protein [3] [nM],apparent KD of MS2 coat protein (input ligand: none) [nM]
ACACAUGAGGAUCACCCAUGUUCAAUAGAUACCAGUGAUACGGUGCACCCUUGGCAGCUGUUGCUGAGUGAUGGUUCCCUCGGAA [#22 SameState-TheophyllineA],32.9,75.6,52.5,–,–
ACACAUGAGGAUCACCCAUGUUGAGGAACACGAGGACCGGUACGGCCGCCACUCGACACAUGAGGAUCACCCAUGUGAUCACCCA [Same State Tryptophan A 2],49.7,129,–,173,–
ACAGGUACGCCUAUUAAAAUAAAACACCUACGAGGACCGGUACGGCCGCCACUCGGGUGACAUGAGGAUCACCCAUGUGGCUAAA [Ceeron],101,610,–,851,–
ACAUCCAGGUUAAUCGUGGACAUGGUCGAUACCAGUAUUUUAAUCUACCCUUGGCAGCGACAUGAGGAUCACCCAUGUGCGAUGA [XTheo A #14],13.8,17.2,14.9,–,–
ACAUGAGGAUCACCCAUGUAAGGUCUUGAUACCAGACGCGAAGUAGUCCCUUGGCAGCAAAUACGUGAGGGUCGCACAUGUGUAA [mcnmullin],18.4,35.9,27.8,59.8,33.1
ACAUGAGGAUCACCCAUGUAAUAAUCAGAAGGAGCGUGGAAUAACACAGGUAGGUCGCUGAUGUUUGGUUAAAAUUAUUCGUGAA [JR_ExcArginiA_Sub001],12.2,16.6,14,14,13.1
ACAUGAGGAUCACCCAUGUAAUGGCACGAUACCAGCUGAUCCCGUGGCCCUUGGCAGCGUCCGGUGUGGUCCGCCGGGUUGGAGC [DDDMULLIN],28.7,39.5,27,–,–
ACAUGAGGAUCACCCAUGUACAUAAGGGAAGGAGCGCGGUGGAACGCAGGUAGGUCGCCCAUAAUAACAAUAAAUAAAUUCAUGU [#04 Same State - Arginine A],14.7,23.6,16.5,17.5,14.7
ACAUGAGGAUCACCCAUGUAGCCUAGGGAAGGAGCGGCAUAAAAGCCAGGUAGGUCGCCCGCAUGAGGAUCACCCAUGUCAAGGA [Same State Arginine A GF7],42.8,81.7,61,74.9,70
ACAUGAGGAUCACCCAUGUAGUAGUCAGAAGGAGCGUGGAAUAACACAGGUAGGUCGCUGAUGUUUGGUUAAAUGUAAUCGUGUA [#30 Same State - Arginine A],19.6,27.6,17.8,18.3,17.4
ACAUGAGGAUCACCCAUGUGAAGCAGGGUACGAGGACCGGUACGGCCGCCACUCGAGGAUUAUGCCGAGUGAAUGGCAACGAUGU [whbob_Ex_trypto A_2s19],–,22.7,–,16.2,–
ACAUGAGGAUCACCCAUGUGCAGAACGGAUACCAGCGUGCUGGUACGCCCUUGGCAGCCGGACAUGAGGAUCACCCAUGUGUGGA [Exclusion Theophylline A GF28],32.1,55.7,66,164,42.1
ACAUGAGGAUCACCCAUGUGCCGAGUUGAUACCAGACCCGCACUAGUCCCUUGGCAGCAACUACGUGUGGGACACCCAUGUUAAG [qaqmullin],29.1,85.5,47.9,–,–
ACAUGAGGAUCACCCAUGUGGCGACUUGAUACCAGACCCGCACUAGUCCCUUGGCAGCAACUACGUGAGGGACACCCAUGUGAAG,17.6,41.6,21.6,38.2,25.8
ACAUGAGGAUCACCCAUGUUGAACUACCAUCGAGGACCGGUACGGCCGCCACUCGCGUUCUCCUUAGCAUCAAGGUCCGCGAAAC [theeternabot_exclusion_MS2_Trp_A_1],10.3,15.3,–,13.6,–
ACAUGAGGAUCACCCAUGUUUGAUGUUCCUCGAGGACCGGUACGGCCGCCACUCGAACGAGUGGCGCGCGCGCGCGCGCGCGCGC [aQa],10.9,22.9,13,14.5,12.5
ACAUGAGGGAUGGAUACCAGCGACAUGAGGAUCACCCAUGUAUGAGGAUCAGCCAUGUUAUGCCCUUGGCAGCCACGAACAUCAG [EDEMULLIN],27.3,45.2,29.8,–,–
ACAUGAGGGCGAAGGAGCGCGAACAUGAGGAUCACCCAUGUGUAUGUAUGUUGUCAUGUAUCGCAGGUAGGUCGCGCUGUUACAU [Exclusion Arginine B],90.1,245,307,341,233
ACAUUAGCCACGGCCGCCACUGCUUUAUGAUUAUAAGGAUUAAUGAACAUGAGGAUCACCCAUGUCAGGACCGGGUGCCUACCAU [SSTryp B #4],31.4,42.3,–,39,–

Sequence,apparent KD of MS2 coat protein (input ligand: arginine 13.2 mM) [nM],apparent KD of MS2 coat protein [1] [nM],apparent KD of MS2 coat protein [2] [nM],apparent KD of MS2 coat protein [3] [nM],apparent KD of MS2 coat protein (input ligand: none) [nM]
ACAUUUAACUGAAGGAGCGUGAUAAACAUGAGGAUCACCCAUGUACCACAGAUUUUCAGAUCACAGGUAGGUCGCAGACUAAUGA [JR_ExcArginiB_Sub014],9.29,14.1,11.5,11.3,11.1
ACAUUUAACUGAAGGAGCGUGAUAUGUACAUGAGGAUCACCCAUGUCUUUCAUGUGAUUUUCACAGGUAGGUCGCAGACUAAUGA [JR_ExcArginiB_Sub003],11.8,14.2,11.6,13,11.5
ACCGCAUCCGUAUAGGAUGCGGCCCAUGAAGGAGCGUGGGAAACCACAGGUAGGUCGCAUGGAAAACAUGAGGAUCACCCAUGUG [Alien],114,442,489,920,524
ACCUACACGGAAACGUGUAGAAGUAAUGAUACCAGCAUGGAAACAUGCCCUUGGCAGCGUUACAUGAGGAUCACCCAUGUAUGUU [#01 Exclusion-TheophyllineA],16.4,19.9,15.4,–,–
ACCUGUACGAAAAGUGCAGGACACGGAAUACGAGGACCGGUACGGCCGCCACUCGGAAUAACCUGAGGAUCACCCUGGUACCGUG [TrypAS 10 #AlternativeMS2 #Zipper #StaticStem],25.8,27.5,19.2,26.7,18.8
ACCUGUACGAAAAGUGCAGGACACGGAUAACGAGGACCGGUACGGCCGCCACUCGGAAUAACCUGAGGAUCACCCUGGUACCGUG [TrypAS 8 #AlternativeMS2 #Zipper #StaticStem],25.8,24,19,23.2,18.7
ACCUUACAUGAGGAUCACCCAUGUCGUGAUACCAGAAACCACGUAUUCCCUUGGCAGCACACCCGUGAUGAGAUUGUCGGUUUUG [theeternabot_sameState_MS2_Theo_A_43],42.2,86.3,49.2,–,–
ACGAACGAUAGUGAUACCAGACGAACAUGAGGAUCACCCAUGUUAUACACAUGGUUUAUUGUCCCUUGGCAGCACUUUAAGUUCG [JR_ExcTheophyB_Sub006],80.1,139,146,–,–
ACGAACGAUAGUGAUACCAGACGUACAUGAGGAUCACCCAUGUUAUACACAUGGUUUAUUGUCCCUUGGCAGCACGAUAAGUUCG [JR_ExcTheophyB_Sub004],109,263,282,–,–
ACGACGCAUAGUGAUACCAGUACAACAUGAGGAUCACCCAUGUCACAUAUGUUGUAAUAGUGCCCUUGGCAGCACUAUGCGUCAG [SSTheo B #3],94.4,106,125,–,–
ACGACGCAUAGUGAUACCAGUAGAACAUGAGGAUCACCCAUGUCUGUGGCGCUCCGCCUCUGCCCUUGGCAGCACUAUGCGUCAG [SSTheo B #10],11.9,17,11.4,–,–
ACGAUAGGACACGAGGAUCACCCGUGUGAUACCAGCCUGGAAACAGGCCCUUGGCAGCACAAAUACUCCAAUAACCUAUCGAAUA [TheoAX 10 #MicroSwitchBubble #AlternativeMS2],56.5,183,106,569,96.3
ACGAUAGGGCAUGAGGAUCACCCAUGUGAUACCAGCCUGGAAACAGGCCCUUGGCAGCAUUAAUACUCCAAUAACCUAUCGAAUA [TheoAX 17 #MicroSwitchBubble #AlternativeMS2],91.5,184,111,864,129
ACGAUGCGACAUGAGGAUCACCCAUGUGAUACCAGCCUGGAAACAGGCCCUUGGCAGCACAAAUACUCCAGAAACGCAUCGAAUA [MAT - Exclusion Theophlline A - Mod of Eli - D3],96.3,356,348,–,–
ACGCGCAGCAGAAGGAGCGUCUUAAUUCUACAUGAGGAUCACCCAUGUUUACAUUGGAUAUGACAGGUAGGUCGCUGGUGUGCGA [#06 Same State - Arginine B],15.9,18.1,15.6,19.6,18
ACGCUGAUUGAUUACAAUCAGCGAAAAGAUACCAGUGGGUAAUCCCACCCUUGGCAGCUUAAACAUGAGGAUCACCCAUGUGGUA [TheoAS 14 #MS2Right #BothOrNeither #AlternativeMS2],79.9,146,126,–,–
ACGUAAUGCAGAAGGAGCGUCUUAUGUAUACAUGAGGAUCACCCAUGUAAUAUGUGGUUGAGACAGGUAGGUCGCUGAAGUACGA [JR_SSArginiB_Sub009],46.9,94.1,58.7,78.4,86
ACUAGUUGUGCAGAUACCAGACAUGAGGAUCACCCAUGUUUGGGUUGUUCGCAACUUCCUGUCCCUUGGCAGCUGUACAUCUAGA [Omei Theo B Exc v5],18.9,46.9,24.3,–,–

# Source: the supplement of paper PMC9170038
